From PMC2953525, “Subtle Alterations in PCNA-Partner Interactions Severely Impair DNA Replication and Repair” (PLoS Biology, 2010)

Experiments:
Assay in all cases: Yeast two hybrid (Y2H) analysis of PCNA-partner interaction
Format in all cases: binding
Ung1 = conditions: YRG2 strain, growth on selective agar plates lacking histidine; growth similar to WT PCNA denoted as 1
Protocol: (§1) For the Y2H assay, we used the YRG2 host strain, shown to be highly efficient in coupling the strength of protein-protein interactions with growth on media lacking histidine. Selected PCNA mutants were characterized for their ability to bind each of 12 main PCNA partners to obtain specificity profiles (Table 1, Table S1, and Figures S4–S5). […] However, in some cases a strong trade-off between the bindings of different partners was observed.
(§2) Y2H analysis was performed using the Yeast Two Hybrid Phagemid vector kit (Stratagene), following the manufacturer's instructions. The pAD-PCNA-WT/mutant plasmids were used as bait while plasmids encoding 12 different PCNA partners (Table 1 and Table S1) were used as prey. The YRG2 host strain (Stratagene) was cotransformed with pAD-PCNA WT/mutant and pBD-partner plasmids in all possible combinations using the LiAC method. Single transformants were grown in liquid SC-Leu-Trp to O.D600 10, washed twice with DDW, and diluted to an initial OD600 of 0.3. A series of 10-fold serial dilutions was then spotted onto selective SC-Leu-Trp-His plates and incubated at 30°C for 3 d. For quantitative Y2H, the generation time of the indicated mutants and their respective partners were calculated from their growth curves in liquid SC-Leu-Trp-His media. Cells were grown overnight in SC-Leu-Trp, washed twice with ddH2O, and diluted by a factor of 1∶50 into 10 ml of pre-warmed SC-Leu-Trp-His. O.D600 measurements of the cultures were taken at the indicated time; the generation time (τ) was calculated from the growth curves according to the equation ODt = OD0×2^t/τ. The generation time calculated for each culture is an average of at least 3 independent experiments.

Rad30 = conditions: YRG2 strain, growth on selective agar plates lacking histidine; growth similar to WT PCNA denoted as 1
Protocol: as §1, §2

Pol32 = conditions: YRG2 strain, growth on selective agar plates lacking histidine; growth similar to WT PCNA denoted as 1
Protocol: as §1, §2

Msh6 = conditions: YRG2 strain, growth on selective agar plates lacking histidine; growth similar to WT PCNA denoted as 1
Protocol: as §1, §2

Rad27 = conditions: footnote c: generation time in liquid selective media lacking histidine relative to cells expressing WT PCNA; average of at least 3 independent experiments
Protocol: as §1, §2

Msh3 = test system: Msh3; set-up: key: ++: major increase in growth; +: moderate increase in growth; similar growth as the WT PCNA-expressing cells; -: minor decrease in growth; --: moderate decrease in growth; ---: major decrease in growth; conditions: spotting onto selective agar plates; PCNA fused to AD, partner to BD
Protocol: as §2
(§3) Table S1: Yeast two hybrid analysis of binding of selected PCNA mutants with seven additional partners not described in Table 1 of the main text. […]
(§4) pol30-Rad30E2 WT WT WT WT WT WT - pol30-Rad30E9 WT WT WT WT WT WT WT pol30-Rad27E6 WT WT WT WT + WT WT pol30-Rad27E31 WT WT WT WT + WT WT pol30-Rad27L1 WT -- WT WT -- WT WT pol30-Rad27L2 WT -- WT WT -- WT WT pol30-Pol32E5 WT WT WT WT WT WT WT pol30-Pol32E9 - WT WT WT WT WT WT pol30-Msh6E2 WT WT + WT WT WT WT pol30-Msh6E6 WT WT ++ WT WT WT WT pol30-Ung1E3 WT - WT WT WT WT WT pol30-79 --- --- --- - --- --- --- a PCNA mutants with enhanced affinities for the different target partners (see Table 1, text). b PCNA mutants were fused to the activating domain (AD), while the different partners were fused to the DNA-binding domain (BD). The growth of the resulting Y2H strains was compared to the growth of the WT PCNA-expressing strain following spotting onto selective agar plates (see Material and Methods). Growth rates on the agar plates were scored and tabulated as follows: ++ major increase in growth; + moderate increase in growth; WT-similar growth as the WT PCNA-expressing cells; - minor decrease in growth; -- moderate decrease in growth; --- major decrease in growth. ND-Not determined.

Rrm3 = test system: Rrm3; set-up: key: ++: major increase in growth; +: moderate increase in growth; similar growth as the WT PCNA-expressing cells; -: minor decrease in growth; --: moderate decrease in growth; ---: major decrease in growth; conditions: spotting onto selective agar plates; PCNA fused to AD, partner to BD
Protocol: as §2, §3, §4

Rfc1 = test system: Rfc1; set-up: key: ++: major increase in growth; +: moderate increase in growth; similar growth as the WT PCNA-expressing cells; -: minor decrease in growth; --: moderate decrease in growth; ---: major decrease in growth; conditions: spotting onto selective agar plates; PCNA fused to AD, partner to BD
Protocol: as §2, §3, §4

Apn2 = test system: Apn2; set-up: key: ++: major increase in growth; +: moderate increase in growth; similar growth as the WT PCNA-expressing cells; -: minor decrease in growth; --: moderate decrease in growth; ---: major decrease in growth; conditions: spotting onto selective agar plates; PCNA fused to AD, partner to BD
Protocol: as §2, §3, §4

Cac1 = test system: Cac1; set-up: key: ++: major increase in growth; +: moderate increase in growth; similar growth as the WT PCNA-expressing cells; -: minor decrease in growth; --: moderate decrease in growth; ---: major decrease in growth; conditions: spotting onto selective agar plates; PCNA fused to AD, partner to BD
Protocol: as §2, §3, §4

Eco1 = test system: Eco1; set-up: key: ++: major increase in growth; +: moderate increase in growth; similar growth as the WT PCNA-expressing cells; -: minor decrease in growth; --: moderate decrease in growth; ---: major decrease in growth; conditions: spotting onto selective agar plates; PCNA fused to AD, partner to BD
Protocol: as §2, §3, §4

Cdc9 = test system: Cdc9; set-up: key: ++: major increase in growth; +: moderate increase in growth; similar growth as the WT PCNA-expressing cells; -: minor decrease in growth; --: moderate decrease in growth; ---: major decrease in growth; conditions: spotting onto selective agar plates; PCNA fused to AD, partner to BD
Protocol: as §2, §3, §4

B1: pol30-Rad27E31: PCNA mutant evolved for Rad27, IDCL sequence DGDYDVLKIREL (protein)
chain: MLEAKFEEASLFKRIIDGFKDCVQLVNFQCKEDGIIAQAVDDSRVLLVSLEIGVEAFQEYRCDHPVTLGMDLTSLSKILRCGNNTDTLTLIADNTPDSIILLFEDTKKDRIAEYSLKLMDGDYDVLKIRELQYDSTLSLPSSEFSKIVRDLSQLSDSINIMITKETIKFVADGDIGSGSVIIKPFVDMEHPETSIKLEMDQPVDLTFGAKYLLDIIKGSSLSDRVGIRLSSEAPALFQFDLKSGFLQFFLAPKFNDEE
modifications: left off: Gal4 activation domain, end not stated, kept
Binding of PCNA Mutants to Target Partners: Ung1 (Y2H) (Ung1): 1
Binding of PCNA Mutants to Target Partners: Rad30 (Y2H) (Rad30): 1
Binding of PCNA Mutants to Target Partners: Pol32 (Y2H) (Pol32): 1
Binding of PCNA Mutants to Target Partners: Msh6 (Y2H) (Msh6): 1
Binding of PCNA Mutants to Target Partners: Rad27, fold increase or decrease (quantitative Y2H) (Rad27): 1.5 ^c fold
Y2H growth relative to WT PCNA-expressing strain: Msh3 (Msh3): WT
Y2H growth relative to WT PCNA-expressing strain: Rrm3 (Rrm3): WT
Y2H growth relative to WT PCNA-expressing strain: Rfc1 (Rfc1): WT
Y2H growth relative to WT PCNA-expressing strain: Apn2 (Apn2): WT
Y2H growth relative to WT PCNA-expressing strain: Cac1 (Cac1): +
Y2H growth relative to WT PCNA-expressing strain: Eco1 (Eco1): WT
Y2H growth relative to WT PCNA-expressing strain: Cdc9 (Cdc9): WT
